Reference: patent US20210171621A1

Experiments:
[1] = molecular target: IL-5 mutant 86C to Alanine, with His-tag (human) (UniProt P05113); assay: capture ELISA: His-tagged IL-5 from HEK293E supernatant captured with murine anti-His antibody, detected with Goat-anti-Human-Fc-Specific-HRP; mean of four wells
[2] = molecular target: IL-5 mutant 96F to Alanine, with His-tag (human) (UniProt P05113); assay: as above
[3] = molecular target: IL-5 mutant 104L to Alanine, with His-tag (human) (UniProt P05113); assay: as above
[4] = molecular target: human IL-5 protein (purchased from Beijing Yiqiao Shenzhou) (human) (UniProt P05113); assay: cell-based or functional assay
[5] = molecular target: human IL-5 protein (purchased from Beijing Yiqiao Shenzhou) (human) (UniProt P05113); assay: SPR Biacore T200, antibody captured on Protein A/G, IL-5 as analyte

Nucala (Mepolizumab) (antibody), sequence (VH): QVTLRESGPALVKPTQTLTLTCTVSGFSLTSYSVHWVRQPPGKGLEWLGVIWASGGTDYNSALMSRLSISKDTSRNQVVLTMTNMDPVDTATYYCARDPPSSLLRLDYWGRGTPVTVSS
Nucala (Mepolizumab) (antibody), sequence (VL): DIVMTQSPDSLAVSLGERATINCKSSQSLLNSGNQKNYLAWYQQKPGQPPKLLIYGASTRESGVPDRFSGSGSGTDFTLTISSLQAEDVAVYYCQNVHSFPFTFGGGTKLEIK

- OD450 [1]: 0.0967
- OD450 [2]: 0.19
- OD450 [3]: 0.109
- IC50 for inhibiting IL-5-induced TF-1 cell proliferation (Nucala) [4]: 0.0708 µg/mL
- Kd [5]: 0.201 nM
Substance: Nucala (Mepolizumab) (antibody)
